B1: Y150-F9-6 (bispecific antibody, human IgG1, lambda)
scFv: EVQLVESGGGLVQPKGSLKLSCAASGFTFNTYAMNWVRQAPGKGLEWVARIRSKYNNYATYYADSVKDRFTISRDDSQSILYLQMNNLKTEDTAMYYCVRHGNFGNSYVSWFAYWGQGTLVTVSSGGGGSGGGGSGGGGSQAVVTQESALTTSPGETVTLTCRSSTGAVTTSNYANWVQEKPDHLFTGLIGGTNKRAPGVPARFSGSLIGDKAALTITGAQTEDEAIYFCALWYSNLWVFGGGTKLTVLGDGDGSDKTHTCPPCPAPEFEGGPSVFLFPPKPKDTLMISRTPEVTCVVVDVSHEDPEVKFNWYVDGVEVHNAKTKPREEQYNSTYRVVSVLTVLHQDWLNGKEYKCKVSNKALPASIEKTISKAKGQPREPQVCTLPPSRDELTKNQVSLSCAVKGFYPSDIAVEWESNGQPENNYKTTPPVLDSDGSFFLVSKLTVDKSRWQQGNVFSCSVMHEALHNHYTQKSLSLSPGK
heavy: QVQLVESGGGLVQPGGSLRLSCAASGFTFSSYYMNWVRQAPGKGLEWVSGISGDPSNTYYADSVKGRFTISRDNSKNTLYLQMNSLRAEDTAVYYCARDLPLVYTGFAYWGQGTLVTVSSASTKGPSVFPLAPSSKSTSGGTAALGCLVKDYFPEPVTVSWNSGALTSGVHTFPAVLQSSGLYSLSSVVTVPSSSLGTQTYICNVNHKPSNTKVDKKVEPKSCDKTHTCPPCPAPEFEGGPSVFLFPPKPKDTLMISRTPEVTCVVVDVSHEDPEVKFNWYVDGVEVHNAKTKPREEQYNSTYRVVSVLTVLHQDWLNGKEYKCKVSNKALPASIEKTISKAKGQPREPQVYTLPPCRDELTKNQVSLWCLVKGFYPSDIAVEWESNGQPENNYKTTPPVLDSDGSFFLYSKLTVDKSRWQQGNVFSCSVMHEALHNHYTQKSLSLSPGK
light: DIELTQPPSVSVAPGQTARISCSGDNLRHYYVYWYQQKPGQAPVLVIYGDSKRPSGIPERFSGSNSGNTATLTISGTQAEDEADYYCQTYTGGASLVFGGGTKLTVLGQPKAAPSVTLFPPSSEELQANKATLVCLISDFYPGAVTVAWKADSSPVKAGVETTTPSKQSNNKYAASSYLSLTPEQWKSHRSYSCQVTHEGSTVEKTVAPTECS
notes: Comparative: anti-CD38 (MOR) Fab arm and anti-CD3 scFv (SP34)-Fc fusion peptide; 150 is used
B2: MS-hCD3-IC15 (bispecific antibody, human IgG1, kappa, N297Q)
scFv: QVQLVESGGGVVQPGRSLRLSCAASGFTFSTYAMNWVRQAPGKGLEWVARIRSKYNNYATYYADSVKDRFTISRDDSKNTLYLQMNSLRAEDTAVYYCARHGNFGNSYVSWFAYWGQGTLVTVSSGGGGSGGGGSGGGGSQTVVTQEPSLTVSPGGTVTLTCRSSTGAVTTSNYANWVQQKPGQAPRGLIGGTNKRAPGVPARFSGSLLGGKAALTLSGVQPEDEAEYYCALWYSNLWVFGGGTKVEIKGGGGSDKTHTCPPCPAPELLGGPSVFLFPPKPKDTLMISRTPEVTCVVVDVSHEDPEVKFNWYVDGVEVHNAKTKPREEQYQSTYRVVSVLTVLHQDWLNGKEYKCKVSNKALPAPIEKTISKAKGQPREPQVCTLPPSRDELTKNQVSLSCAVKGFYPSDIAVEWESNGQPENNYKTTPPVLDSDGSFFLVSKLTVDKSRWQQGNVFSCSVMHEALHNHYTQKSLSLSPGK
heavy: EVKLDETGGGLVQPGRPMKLSCVASGFTFSDYWMNWVRQSPEKGLEWVAQIRNKPYNYETYYSDSVKGRFTISRDDSKSSVYLQMNNLRVEDMGIYYCTGSYYGMDYWGQGTSVTVSSASTKGPSVFPLAPSSKSTSGGTAALGCLVKDYFPEPVTVSWNSGALTSGVHTFPAVLQSSGLYSLSSVVTVPSSSLGTQTYICNVNHKPSNTKVDKKVEPKSCDKTHTCPPCPAPELLGGPSVFLFPPKPKDTLMISRTPEVTCVVVDVSHEDPEVKFNWYVDGVEVHNAKTKPREEQYQSTYRVVSVLTVLHQDWLNGKEYKCKVSNKALPAPIEKTISKAKGQPREPQVYTLPPCRDELTKNQVSLWCLVKGFYPSDIAVEWESNGQPENNYKTTPPVLDSDGSFFLYSKLTVDKSRWQQGNVFSCSVMHEALHNHYTQKSLSLSPGK
light: DVVMTQTPLSLPVSLGDQASISCRSSQSLVHSNGNTYLRWYLQKPGQSPKVLIYKVSNRFSGVPDRFSGSGSGTDFTLKISRVEAEDLGVYFCSQSTHVPWTFGGGTKLEIKRTVAAPSVFIFPPSDEQLKSGTASVVCLLNNFYPREAKVQWKVDNALQSGNSQESVTEQDSKDSTYSLSSTLTLSKADYEKHKVYACEVTHQGLSSPVTKSFNRGEC
B3: Y150-F9-11 (bispecific antibody, human IgG1, kappa)
scFv: QVQLVESGGGVVQPGRSLRLSCAASGFTFSTYAMNWVRQAPGKGLEWVARIRSKYNNYATYYADSVKDRFTISRDDSKNTLYLQMNSLRAEDTAVYYCARHGNFGNSYVSWFAYWGQGTLVTVSSGGGGSGGGGSGGGGSQTVVTQEPSLTVSPGGTVTLTCRSSTGAVTTSNYANWVQQKPGQAPRGLIGGTNKRAPGVPARFSGSLLGGKAALTLSGVQPEDEAEYYCALWYSNLWVFGGGTKVEIKGRGRGSDKTHTCPPSPAPPVAGPSVFLFPPKPKDTLMISRTPEVTCVVVDVSHEDPEVQFNWYVDGVEVHNAKTKPREEQFNSTFRVVSVLTVVHQDWLNGKEYKCKVSNKGLPAPIEKTISKTKGQPREPQVCTLPPSRDELTKNQVSLSCAVKGFYPSDIAVEWESNGQPENNYKTTPPVLDSDGSFFLVSKLTVDKSRWQQGNVFSCSVMHEALHNHYTQKSLSLSPGK
heavy: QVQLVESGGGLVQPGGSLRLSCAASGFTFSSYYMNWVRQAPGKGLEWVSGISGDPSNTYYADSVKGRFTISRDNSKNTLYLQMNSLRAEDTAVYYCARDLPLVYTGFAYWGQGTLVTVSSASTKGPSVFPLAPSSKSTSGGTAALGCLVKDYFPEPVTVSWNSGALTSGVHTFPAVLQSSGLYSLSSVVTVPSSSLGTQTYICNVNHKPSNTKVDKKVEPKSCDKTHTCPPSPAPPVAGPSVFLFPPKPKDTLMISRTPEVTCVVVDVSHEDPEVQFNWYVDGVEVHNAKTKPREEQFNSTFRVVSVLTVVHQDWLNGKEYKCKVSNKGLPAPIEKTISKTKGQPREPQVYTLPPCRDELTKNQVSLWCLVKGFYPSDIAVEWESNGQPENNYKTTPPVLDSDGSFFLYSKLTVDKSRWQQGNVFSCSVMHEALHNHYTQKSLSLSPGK
light: DIELTQPPSVSVAPGQTARISCSGDNLRHYYVYWYQQKPGQAPVLVIYGDSKRPSGIPERFSGSNSGNTATLTISGTQAEDEADYYCQTYTGGASLVFGGGTKLTVLRTVAAPSVFIFPPSDEQLKSGTASVVCLLNNFYPREAKVQWKVDNALQSGNSQESVTEQDSKDSTYSLSSTLTLSKADYEKHKVYACEVTHQGLSSPVTKSFNRGEC
notes: Anti-CD38 (MOR) Fab arm with CL Lc1 and anti-CD3 scFv (VH2a/VL5)-Fc fusion peptide

Legend:
Human CD38 = biological target: T1, Human CD38 (human, UniProt P28907 1-300); assay: flow cytometry on CD38 positive tumor cells (MM.1S or RPMI 8226)
T1 construct: whole, on cells; the assays used the protein on tumor cells

human CD3 [1] = biological target: T2, human CD3 (human, UniProt P07766 23-207); assay: flow cytometry on human CD3 positive T cells
T2 construct: whole, on cells; Assays used CD3 positive T cells (or CIK cells) from human blood; also called Human CD3ϵ; CD3 on human CD3 positive T cells

monkey CD3 = biological target: T3, monkey CD3 (monkey); assay: flow cytometry on monkey CD3 positive T cells
T3 construct: whole, on cells; also called CD3 on monkey CD3 positive T cells

human CD3 [2] = biological target: T2, human CD3; assay: cell-based or functional assay
human CD3 [3] = biological target: T2, human CD3; assay: cell-based or functional assay; remark: listed apart in the source

| Binder | EC50 (Human CD38) | EC50 (human CD3 [1]) | EC50 (monkey CD3) | Cytotoxicity EC50 against lung cancer cells H358 (human PBMC 10:1, 48 h); control with CD3 arm only, no tumor antigen arm (human CD3 [2]) | EC50 values of T-cell activation (CD3 and CD69 dual positive cells; human PBMC with MC/CAR target cells 5:1, 48 h) (human CD3 [3]) |
| --- | --- | --- | --- | --- | --- |
| B1 | 27.1 nM | 111 nM | 130 nM | – | – |
| B2 | – | 194 nM | 378 nM | 0.172 µg/mL | – |
| B3 | 106 nM | 437 nM | 461 nM | – | 0.0835 nM |

Reference: patent publication US20220041721A1 (WUHAN YZY BIOPHARMA, published 2022)
